Blank lines part the entries; values can stand above or below the substance they belong to.
How the values were obtained:
[1] = target: antibody captured by the human Fab capture kit; test: SPR (BIAcore), antibody captured via human Fab capture kit, 50 nM receptor injected as analyte
[2] = target: antibody captured by the human Fab capture kit; test: SPR (BIAcore), antibody captured via human Fab capture kit, 50 nM receptor fusion injected as analyte
- [3] = test: SPR; monomeric, middle panel
- [4] = test: SPR; monomeric, top panel

response units [1]: 40 RU
Substance: FcgammaRIIIaV158 (HisAvi-tag comprising functional variant) (receptor)

response units [2]: > 100 RU
Substance: FcgammaRIIIaV158-Avi-IgA Protease-Fc LALA P329G fusion polypeptide (Fc fusion)

Kd (- [3]): 801 pM
Substance: monomeric IL18R-Fc fusion polypeptide (middle)

Kd (- [4]): 921 pM
Substance: monomeric IL18R-Fc fusion polypeptide (top)

From patent US20150218250A1
